B1: Nephronectin (Mus musculus), Q91V88 (parent)
chain: MAVLLAAVLASSLYLQVAADFDGRWPRQIVSSIGLCRYGGRIDCCWGWARQSWGQCQPVCQPQCKHGECVGPNKCKCHPGFAGKTCNQDLNECGLKPRPCKHRCMNTFGSYKCYCLNGYMLLPDGSCSSALSCSMANCQYGCDVVKGQVRCQCPSPGLQLAPDGRTCVDIDECATGRVSCPRFRQCVNTFGSYICKCHTGFDLMYIGGKYQCHDIDECSLGQHQCSSYARCYNIHGSYKCQCRDGYEGDGLNCVYIPKVMIEPSGPIHMPERNGTISKGDGGHANRIPDAGSTRWPLKTPYIPPVITNRPTSKPTTRPTPNPTPQPTPPPPPPLPTEPRTTPLPPTPERPSTRPTTIAPATSTTTRVITVDNRIQTDPQKPRGDVFIPRQPTNDLFEIFEIERGVSADEEVKDDPGILIHSCNFDHGLCGWIREKDSDLHWETARDPAGGQYLTVSAAKAPGGKAARLVLRLGHLMHSGDLCLSFRHKVTGLHSGTLQVFVRKHGTHGAALWGRNGGHGWRQTQITLRGADVKSVIFKGEKRRGHTGEIGLDDVSLKRGRC

Variants of: B1
Details: with agrin_human AGRN

| Variant | effect of a mutation on the interaction |
| --- | --- |
| MAVLLAAVLASSLYLQVAADFDGRWPRQIVSSIGLCRYGGRIDCCWGWARQSWGQCQPVCQPQCKHGECVGPNKCKCHPGFAGKTCNQDLNECGLKPRPCKHRCMNTFGSYKCYCLNGYMLLPDGSCSSALSCSMANCQYGCDVVKGQVRCQCPSPGLQLAPDGRTCVDIDECATGRVSCPRFRQCVNTFGSYICKCHTGFDLMYIGGKYQCHDIDECSLGQHQCSSYARCYNIHGSYKCQCRDGYEGDGLNCVYIPKVMIEPSGPIHMPERNGTISKGDGGHANRIPDAGSTRWPLKTPYIPPVITNRPTSKPTTRPTPNPTPQPTPPPPPPLPTEPRTTPLPPTPERPSTRPTTIAPATSTTTRVITVDNRIQTDPQKPRGDVFIPRQPTNDLFEIFEIERGVSADEEVKDDPGILIHSCNFDHGLCGWIREKDSDLHWETARDPAGGQYLTVSAAKAPGGKAARLVLRLGHLMHSGDLCLSFRHKVTGLHSGTLQVFVRKHGTHGAALWGRNGGHGWRQTQITLRGADVKSVIFKGEAAAGHTGEIGLDDVSLKRGRC [K541A;R542A;R543A] | decreasing interaction |
| MAVLLAAVLASSLYLQVAADFDGRWPRQIVSSIGLCRYGGRIDCCWGWARQSWGQCQPVCQPQCKHGECVGPNKCKCHPGFAGKTCNQDLNECGLKPRPCKHRCMNTFGSYKCYCLNGYMLLPDGSCSSALSCSMANCQYGCDVVKGQVRCQCPSPGLQLAPDGRTCVDIDECATGRVSCPRFRQCVNTFGSYICKCHTGFDLMYIGGKYQCHDIDECSLGQHQCSSYARCYNIHGSYKCQCRDGYEGDGLNCVYIPKVMIEPSGPIHMPERNGTISKGDGGHANRIPDAGSTRWPLKTPYIPPVITNRPTSKPTTRPTPNPTPQPTPPPPPPLPTEPRTTPLPPTPERPSTRPTTIAPATSTTTRVITVDNRIQTDPQKPRGDVFIPRQPTNDLFEIFEIERGVSADEEVKDDPGILIHSCNFDHGLCGWIREKDSDLHWETARDPAGGQYLTVSAAAAPGGAAARLVLRLGHLMHSGDLCLSFRHKVTGLHSGTLQVFVRKHGTHGAALWGRNGGHGWRQTQITLRGADVKSVIFKGEKRRGHTGEIGLDDVSLKRGRC [K459A;K464A] | decreasing interaction |
| MAVLLAAVLASSLYLQVAADFDGRWPRQIVSSIGLCRYGGRIDCCWGWARQSWGQCQPVCQPQCKHGECVGPNKCKCHPGFAGKTCNQDLNECGLKPRPCKHRCMNTFGSYKCYCLNGYMLLPDGSCSSALSCSMANCQYGCDVVKGQVRCQCPSPGLQLAPDGRTCVDIDECATGRVSCPRFRQCVNTFGSYICKCHTGFDLMYIGGKYQCHDIDECSLGQHQCSSYARCYNIHGSYKCQCRDGYEGDGLNCVYIPKVMIEPSGPIHMPERNGTISKGDGGHANRIPDAGSTRWPLKTPYIPPVITNRPTSKPTTRPTPNPTPQPTPPPPPPLPTEPRTTPLPPTPERPSTRPTTIAPATSTTTRVITVDNRIQTDPQKPRGDVFIPRQPTNDLFEIFEIERGVSADEEVKDDPGILIHSCNFDHGLCGWIREKDSDLHWETAADPAGGQYLTVSAAKAPGGKAARLVLRLGHLMHSGDLCLSFRHKVTGLHSGTLQVFVRKHGTHGAALWGRNGGHGWRQTQITLRGADVKSVIFKGEKRRGHTGEIGLDDVSLKRGRC [R445A] | decreasing interaction |
| MAVLLAAVLASSLYLQVAADFDGRWPRQIVSSIGLCRYGGRIDCCWGWARQSWGQCQPVCQPQCKHGECVGPNKCKCHPGFAGKTCNQDLNECGLKPRPCKHRCMNTFGSYKCYCLNGYMLLPDGSCSSALSCSMANCQYGCDVVKGQVRCQCPSPGLQLAPDGRTCVDIDECATGRVSCPRFRQCVNTFGSYICKCHTGFDLMYIGGKYQCHDIDECSLGQHQCSSYARCYNIHGSYKCQCRDGYEGDGLNCVYIPKVMIEPSGPIHMPERNGTISKGDGGHANRIPDAGSTRWPLKTPYIPPVITNRPTSKPTTRPTPNPTPQPTPPPPPPLPTEPRTTPLPPTPERPSTRPTTIAPATSTTTRVITVDNRIQTDPQKPRGDVFIPRQPTNDLFEIFEIERGVSADEEVKDDPGILIHSCNFDHGLCGWIREKDSDLHWETARDPAGGQYLTVSAAKAPGGKAARLVLRLGHLMHSGDLCLSFRHKVTGLHSGTLQVFVAAAGTHGAALWGRNGGHGWRQTQITLRGADVKSVIFKGEKRRGHTGEIGLDDVSLKRGRC [R502A;K503A;H504A] | decreasing interaction |
| MAVLLAAVLASSLYLQVAADFDGRWPRQIVSSIGLCRYGGRIDCCWGWARQSWGQCQPVCQPQCKHGECVGPNKCKCHPGFAGKTCNQDLNECGLKPRPCKHRCMNTFGSYKCYCLNGYMLLPDGSCSSALSCSMANCQYGCDVVKGQVRCQCPSPGLQLAPDGRTCVDIDECATGRVSCPRFRQCVNTFGSYICKCHTGFDLMYIGGKYQCHDIDECSLGQHQCSSYARCYNIHGSYKCQCRDGYEGDGLNCVYIPKVMIEPSGPIHMPERNGTISKGDGGHANRIPDAGSTRWPLKTPYIPPVITNRPTSKPTTRPTPNPTPQPTPPPPPPLPTEPRTTPLPPTPERPSTRPTTIAPATSTTTRVITVDNRIQTDPQKPRGDVFIPRQPTNDLFEIFEIERGVSADEEVKDDPGILIHSCNFDHGLCGWIREKDSDLHWETARDPAGGQYLTVSAAKAPGGKAARLVLRLGHLMHSGDLCLSFRHKVTGLHSGTLQVFVRKHGTHGAALWGRNGGHGWRQTQITLAGADVKSVIFKGEKRRGHTGEIGLDDVSLKRGRC [R528A] | decreasing interaction |
| MAVLLAAVLASSLYLQVAADFDGRWPRQIVSSIGLCRYGGRIDCCWGWARQSWGQCQPVCQPQCKHGECVGPNKCKCHPGFAGKTCNQDLNECGLKPRPCKHRCMNTFGSYKCYCLNGYMLLPDGSCSSALSCSMANCQYGCDVVKGQVRCQCPSPGLQLAPDGRTCVDIDECATGRVSCPRFRQCVNTFGSYICKCHTGFDLMYIGGKYQCHDIDECSLGQHQCSSYARCYNIHGSYKCQCRDGYEGDGLNCVYIPKVMIEPSGPIHMPERNGTISKGDGGHANRIPDAGSTRWPLKTPYIPPVITNRPTSKPTTRPTPNPTPQPTPPPPPPLPTEPRTTPLPPTPERPSTRPTTIAPATSTTTRVITVDNRIQTDPQKPRGDVFIPRQPTNDLFEIFEIERGVSADEEVKDDPGILIHSCNFDHGLCGWIREKDSDLHWETARDPAGGQYLTVSAAKAPGGKAARLVLRLGHLMHSGDLCLSFRHKVTGLHSGTLQVFVRKHGTHGAALWGRNGGHGWRQTQITLRGADVKSVIFKGEKRRGHTGEIGLDDVSLAAAAC [K557A;R558A;G559A;R560A] | decreasing interaction |
| MAVLLAAVLASSLYLQVAADFDGRWPRQIVSSIGLCRYGGRIDCCWGWARQSWGQCQPVCQPQCKHGECVGPNKCKCHPGFAGKTCNQDLNECGLKPRPCKHRCMNTFGSYKCYCLNGYMLLPDGSCSSALSCSMANCQYGCDVVKGQVRCQCPSPGLQLAPDGRTCVDIDECATGRVSCPRFRQCVNTFGSYICKCHTGFDLMYIGGKYQCHDIDECSLGQHQCSSYARCYNIHGSYKCQCRDGYEGDGLNCVYIPKVMIEPSGPIHMPERNGTISKGDGGHANRIPDAGSTRWPLKTPYIPPVITNRPTSKPTTRPTPNPTPQPTPPPPPPLPTEPRTTPLPPTPERPSTRPTTIAPATSTTTRVITVDNRIQTDPQKPRGDVFIPRQPTNDLFEIFEIERGVSADEEVKDDPGILIHSCNFDHGLCGWIREKDSDLHWETARDPAGGQYLTVSAAKAPGGKAARLVLALGHLMHSGDLCLSFRHKVTGLHSGTLQVFVRKHGTHGAALWGRNGGHGWRQTQITLRGADVKSVIFKGEKRRGHTGEIGLDDVSLKRGRC [R471A] | decreasing interaction |

— IntAct's records for PubMed 23357641
